Measured values taken from patent US20230266303A1, “SYSTEM” (GTINVENT LIMITED, priority 2020, published 2023).

Test system: dSH-SY5Y cells
Test: ReadyProbes cell viability assay (cell death) after exposure to dGAE
Type: cell-based
Settings: 24 h incubation; for percentage cell death: 1 μM, buffer only 21.6±1.6%
Description: Undifferentiated SH-SY5Y human neuroblastoma cells were grown in Dulbecco's Modified Eagle Medium/Nutrient Mixture F-12 (DMEM/F-12) supplemented with 10% Foetal Calf Serum (FCS), 1% Penicillin/Streptomycin (P/S) and 1% L-glutamine. For differentiation, SH-SY5Y cells were plated at a density of 50,000 cells per well in 24-well plates or 300,000 cells per well in 6-well plates. For immunofluorescence, cells were plated onto Menzel-Gläser coverslips (Thermo Scientific). For live-cell imaging, cells were plated on 35-mm dishes on a 1.5-mm coverslip (Mattek). On the first day of differentiation, media was replaced with low-serum culture media (DMEM/F-12 containing 1% FCS, 1% P/S and 1% L-glutamine) containing 10 μM all-trans retinoic acid (RA) (Sigma-Aldrich) and cells were incubated for 48 h. On day 3, this process was repeated with fresh RA and cells were incubated for a further 48 h. On day 5, the cells were washed once in serum-free culture media to remove traces of serum. […] Differentiated cells (dSH-SY5Y) were ready to use for experiments on day 7. […]
Following the addition of dGAE, cell viability was measured using ReadyProbes® Cell Viability Imaging Kit (Life Technologies). […] DAPI fluorescence was captured using a G 365 excitation filter and a LP 420 emission filter with a FT 395 dichroic. Green fluorescence was captured using a FITC filter set (BP 450-490 excitation filter, BP 515-565 emission filter and FT 510 dichroic). Identical acquisition settings were used for all replicates and images were analysed using FIJI. Six fields of view were taken per sample and an average of 4500 cells were analysed per condition. The proportion of buffer-treated cell death was quantified by converting the images to grayscale followed by manually adjusting the threshold and converting it into a binary image to highlight live DAPI-stained cells. The number of cells was automatically counted. The dead cells were counted in the same way and cell death was expressed as a percentage of buffer-treated cells. […]

In the case of “dGAE: recombinant truncated tau, 95 residues fragment of Tau (2N4R), Ile-297 to Glu-391, SEQ ID NO: 4”, the percentage cell death (aggregated dGAE (100 μM agitated 72 h)) is reported as 34±2.9%, the percentage cell death (soluble dGAE (0 h, no agitation)) is reported as 24.1±1.2% and the “cell death on increasing concentration” value (soluble dGAE up to 20 μM) is reported as “no further increase in cell death”.
